Measurements as given in US20240254227A1 (Alector, published 2024).

T1: recombinant murine CD300LB overexpressed on BaF/3 cells (mouse, UniProt Q3U497 18-209)
T1 sequence: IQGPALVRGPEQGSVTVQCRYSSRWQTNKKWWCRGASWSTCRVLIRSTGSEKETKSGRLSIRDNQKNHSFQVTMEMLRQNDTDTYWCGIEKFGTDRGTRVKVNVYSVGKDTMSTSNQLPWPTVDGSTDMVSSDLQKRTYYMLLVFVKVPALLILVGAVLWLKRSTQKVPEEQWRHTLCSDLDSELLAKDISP

T2: murine CD300LB stably expressed on Jurkat cells (mouse, UniProt Q3U497 18-209)
T2 construct: also called muCD300LB; mouse CD300LB
T2 sequence: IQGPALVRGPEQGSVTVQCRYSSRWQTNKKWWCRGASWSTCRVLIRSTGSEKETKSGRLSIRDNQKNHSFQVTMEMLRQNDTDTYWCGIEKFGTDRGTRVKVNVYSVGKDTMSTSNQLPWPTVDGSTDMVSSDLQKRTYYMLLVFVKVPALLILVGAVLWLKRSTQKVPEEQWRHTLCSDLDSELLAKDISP

T3: murine CD300E-Fc (mouse)
T3 construct: mouse IgG2a-Fc fusion (R&D Systems); the entry is the whole fusion chain; also called mCD300E; Mouse CD300E-Fc
T3 chain: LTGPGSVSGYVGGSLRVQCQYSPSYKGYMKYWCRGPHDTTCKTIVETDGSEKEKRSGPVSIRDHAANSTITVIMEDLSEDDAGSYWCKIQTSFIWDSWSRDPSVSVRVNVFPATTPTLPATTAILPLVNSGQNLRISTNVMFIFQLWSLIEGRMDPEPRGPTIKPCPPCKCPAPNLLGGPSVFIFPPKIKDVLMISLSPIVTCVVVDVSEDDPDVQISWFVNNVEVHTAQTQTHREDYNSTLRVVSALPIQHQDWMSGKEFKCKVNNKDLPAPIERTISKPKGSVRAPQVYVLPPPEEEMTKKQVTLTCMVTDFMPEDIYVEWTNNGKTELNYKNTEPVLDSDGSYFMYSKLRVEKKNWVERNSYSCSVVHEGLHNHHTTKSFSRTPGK

T4: murine CD300LB-Fc (mouse)
T4 construct: mouse IgG2a-Fc fusion (R&D Systems); the entry is the whole fusion chain; also called mCD300LB; Mouse CD300LB-Fc
T4 chain: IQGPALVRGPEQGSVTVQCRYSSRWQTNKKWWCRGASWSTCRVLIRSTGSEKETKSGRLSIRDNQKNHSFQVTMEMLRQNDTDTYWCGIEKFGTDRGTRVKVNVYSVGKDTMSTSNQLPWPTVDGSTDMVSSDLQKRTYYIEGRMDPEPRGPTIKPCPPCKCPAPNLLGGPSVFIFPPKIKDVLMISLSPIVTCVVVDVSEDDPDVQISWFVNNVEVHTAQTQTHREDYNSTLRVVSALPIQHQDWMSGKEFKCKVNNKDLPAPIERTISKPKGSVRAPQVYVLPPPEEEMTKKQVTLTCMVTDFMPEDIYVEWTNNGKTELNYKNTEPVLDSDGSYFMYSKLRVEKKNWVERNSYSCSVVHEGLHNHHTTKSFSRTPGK

T5: murine CD300C-Fc (mouse)
T5 construct: mouse IgG2a-Fc fusion (R&D Systems); the entry is the whole fusion chain; also called mCD300C; Mouse CD300C-Fc
T5 chain: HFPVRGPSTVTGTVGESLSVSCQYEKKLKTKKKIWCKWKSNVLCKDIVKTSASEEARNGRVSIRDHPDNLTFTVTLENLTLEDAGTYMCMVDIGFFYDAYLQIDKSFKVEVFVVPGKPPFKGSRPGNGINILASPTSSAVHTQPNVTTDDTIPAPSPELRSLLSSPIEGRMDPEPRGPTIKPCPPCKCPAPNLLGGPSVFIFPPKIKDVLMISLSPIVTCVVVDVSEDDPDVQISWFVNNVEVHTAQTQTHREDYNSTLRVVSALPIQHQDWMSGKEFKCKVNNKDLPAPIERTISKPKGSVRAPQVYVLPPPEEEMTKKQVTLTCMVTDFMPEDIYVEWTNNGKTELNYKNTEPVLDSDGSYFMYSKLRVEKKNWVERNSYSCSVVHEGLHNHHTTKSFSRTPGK

B1: anti-CD300LB antibody CD-12 (antibody, V domains shown)
VH: QIQLVQSGPELKKPGETVKISCKASGYTFTDYSMHWVRQAPGKGLKWMAWINTETGEATHADDFKGRFDFSLDTSASTAYLQIKNLKNEDTGIYFCVCYGSSYGMDYWGQGTSVTVSS
VL: DIVLTQSPASLPVSLGQRATISCRASKSVRTSGASYMHWYQQKPGQPPKLLIYLASNLKSGVPTRFSGSGSGTDFTLNIHPVEEEDAATYYCQHNREVPPTFGGGTKLEIK
B2: anti-CD300LB antibody CD-16 (antibody, V domains shown)
VH: QIQLVQSGPELKKPGETVKISCKASGYTFTDYSMHWVKQAPGKGLKWMAWINTETGEPTYADDFRGRFAFSLETSGRTAYLEINNLRNEDTATYFCVTYGSSYGMAYWGQGTSVTVSS
VL: DIVLTQSPASLAVSLGQRATISCRASKSVSRSGYSYLHWYQQKPGQPPKLLIYLASKLESGVPARFSGSGSGTDFTLNIHPVEAEDAATYYCQHNREIPPTFGGGTKLEIK
B3: anti-CD300LB antibody CD-15 (antibody, V domains shown)
VH: QIQLVQSGPELKKPGETVKISCQVSGYTFTDYSMHWLKQAPGKGLKWMAWINTETGESTYTDEFKGRFVFSLETSVRTAYLKINNLKNEDTATYFCGTYGSSYGMAYWGQGTSVTVSS
VL: DIVLTQSPASLPVSLGQRATISCRASKSVSTSGSSYLHWYQQKPGQPPKLLIYLASKLESGVPARFRGSGSGTDFTLNIHPVEEEDAATYYCQHNREVPPTFGGGTKLEIK
B4: anti-CD300LB antibody CD-17 (antibody, V domains shown)
VH: QIQLVQSGPELKKPGETVKISCKASGYTLTDYSMHWVKQAPGKGLKWMGWINTETGEPRYGDDFKGRFAFSLETSASSAYLQINNLKNDDTATYFCATYGRSYGMDFWGQGTSVTVSS
VL: DIVLTQSPASLAVSLGQRATISCRASKSVSPSGHSYMHWYQQKPGQPPKLLIYLASNLKSGVPARFSGSGSGTDFTLNIHPVEEGDAATYYCQHNRELPPTFGGGSKLEIK
B5: anti-CD300LB antibody CD-13 (antibody, V domains shown)
VH: QIQLVQSGPELKKPGETVKISCKASGYTFTDYSMHWVKQAPGKGFKWMAWINTETGAPTHADDFRGRFAFSLETSASTAFLQISNLKTEDTATYFCVTFGKSYGMNYWGQGTSVTVSS
VL: DIVLTQSPASLSVSLGQRATISCRASKSVGSSGSSYLHWYQQKPGQPPKLLIYLASNLESGVPARFSGSGSGTEFTLNIHPVEEEDAATYYCQHNAEVPPTFGGGTKLEIK
B6: anti-CD300LB antibody CD-11 (antibody, V domains shown)
VH: QIQLVQSGPEVKKPGETVKISCKASGYTLTDYSMHWVMQTPGTGLKWMAWMNTETGEPTYADDFKGRFAFSLETSAGTAYLQIDNLKNEDTATYFCATYGKSYGMKYWGQGTSVTVSS
VL: DIVLTQSPPSLAVSLGQRATISCRATKSVSPYLHWYQQTPGQPPKLLIYLASNLDSGVPARFSGSGSGTDFTLNIHPVEEEDAATYYCQHNKELPPTFGGGTRLEIK
B7: anti-CD300LB antibody CD-14 (antibody, V domains shown)
VH: QIQLVQSGPELKKPGETVKISCKASGYTFTDYSLHWVKQTPEKNLKWMAWINTETGAPTYADDFKGRFAFSLETSSNTAYLLINNLKNEDTATYFCALTMVNYWGQGTTLTVSS
VL: DIVMTQSQKFMSTSVGDRVSVTCKASQNVGIRVAWHQQKPGQSPKTLIYSTSYRYSGVPDRFTGSGSGTEFILTISNVQSEDLAEYFCQQYNSYPYTFGGGTKLEIK
B8: anti-CD300LB antibody CD-10 (antibody, V domains shown)
VH: QVQLQQSGPELVRPGVSVKISCKGSGYTFTDYAMHWVKQSHVRSREWIGVIGTYNGHTNYNQKFKGKATMTVDKSSSTAYLELARLTSEDSAIYYCARSGSYYYSMDYWGQGTSVTVSS
VL: QIVLTQSPAIMSASPGEKVTMTCSASSSVNYMHWYQQKSGTSPKRWIYDTSKLSSGVPARFSGSGSGTSYSLTISTMEAEDAATYYCQQWSSNPPMTFGGGTKLEIK

Assays:
[1] = biological target: T1, recombinant murine CD300LB …; assay: cell-based or functional assay
[2] = biological target: T2, murine CD300LB stably expressed on …; assay: flow cytometry, stable Jurkat cells, 10 ug/mL, isotype subtracted
Experimental: Purified anti-CD300LB antibodies of the present disclosure were analyzed for cross-reactivity to other murine CD300 family members stably expressed in Jurkat cells (generation of which is described above). Cells were counted and labeled with 200 nM CFSE, 500 nM VioBlue, or a combination of the two to discriminate between muCD300LB, Parental cells, CD300F, and the other CD300 family members. Cells were washed thoroughly with PBS containing 2% fetal bovine serum then resuspended at a total of 240,000 cells per well. Purified antibodies at 10 μg/mL were added and incubated for one hour before the cells were washed twice again and stained with an APC-labeled anti-mouse secondary. Cells were then analyzed using a BD FACSCanto II. Antibodies were analyzed for specific binding to muCD300LB by FlowJo software by gating on live cells, then the APC gMFI calculated for each labeled population by subtracting the gMFI of the isotype control. The gMFI results of the analysis are presented below in Table 4.

murine CD300E-Fc = biological target: T3, murine CD300E-Fc; assay: SPR (Carterra LSA), antibody immobilised, Fc fusion at 300 or 600 nM
Experimental: (§1) Binding of mouse anti-CD300LB IgG1 antibodies of the present disclosure to human and murine CD300 orthologs were evaluated by surface plasmon resonance (SPR) using a Carterra LSA instrument (Carterra, Salt Lake City, UT). […] A HC200M sensor chip (Carterra) was activated using the single channel flow cell with a 7-minute injection of a 1:1:1 mixture of 100 mM MES pH 5.5, 100 mM sulfo-NHS, 400 mM EDC (all reconstituted in MES pH 5.5; 100 μL of each mixed in vial immediately before running assay). After switching to the multi-channel array flow cell, the antibodies were injected over the activated chip in a 96-spot array for 10 minutes. The remaining unconjugated active groups on the chip were then blocked by injecting 1M Ethanolamine pH 8.5 (Carterra) for 7 minutes using the single channel flow cell. After priming with running buffer (HBS-TE, Carterra) with 0.5 mg/ml BSA (Sigma), the immobilized anti-CD300LB antibodies were tested for their ability to bind human and mouse recombinant CD300LB extracellular domains. Human CD300 family members and mouse CD300A were hIgG1-Fc fusions, while mouse CD300LB, mouse CD300C, mouse CD300D, and mouse CD300E were mouse IgG2a-Fc fusions (R&D Systems). Binding was assessed by injecting each analyte over the entire antibody array using the single channel flow cell. CD300 analytes were diluted to 300 nM or 600 nM in running buffer and injected in series without regeneration. Two or three buffer blanks were run between each mouse or human ortholog, respectively. Data were processed and analyzed using NextGenKIT high-throughput kinetics analysis software (Carterra).
(§2) Results of anti-CD300LB antibody binding to murine CD300 family members is provided below in Table 8.

murine CD300LB-Fc = biological target: T4, murine CD300LB-Fc; assay: as above
Experimental: as §1, §2

murine CD300C-Fc = biological target: T5, murine CD300C-Fc; assay: as above
Experimental: as §1, §2

murine CD300A-Fc = biological target: T6, murine CD300A-Fc (mouse); assay: as above
T6 construct: hIgG1-Fc fusion; the entry is the whole fusion chain; also called mCD300A; Mouse CD300A-Fc
T6 sequence (chain, as listed by the source limits assumed): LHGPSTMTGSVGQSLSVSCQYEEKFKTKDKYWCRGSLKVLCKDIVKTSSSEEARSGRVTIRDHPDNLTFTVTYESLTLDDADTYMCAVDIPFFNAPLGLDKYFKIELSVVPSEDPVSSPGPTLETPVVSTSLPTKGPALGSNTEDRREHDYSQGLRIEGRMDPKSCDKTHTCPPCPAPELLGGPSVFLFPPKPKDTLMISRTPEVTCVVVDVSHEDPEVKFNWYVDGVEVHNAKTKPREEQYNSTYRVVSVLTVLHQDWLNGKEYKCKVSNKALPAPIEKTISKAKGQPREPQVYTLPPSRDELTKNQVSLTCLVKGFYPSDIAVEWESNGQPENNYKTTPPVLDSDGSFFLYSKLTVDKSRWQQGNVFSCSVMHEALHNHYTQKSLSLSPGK
Experimental: as §1, §2

| Binder | Luminescence in BaF/3 [1] | gMFI [2] | SPR binding (control subtracted) (murine CD300E-Fc) | SPR binding (control subtracted) (murine CD300LB-Fc) | SPR binding (control subtracted) (murine CD300C-Fc) | SPR binding (control subtracted) (murine CD300A-Fc) |
| --- | --- | --- | --- | --- | --- | --- |
| B1 | 22800 | 4210 gMFI | -0.6 | 43.2 | 2.5 | 4.2 |
| B2 | 792 | 4570 gMFI | 8.6 | 310 | 34.5 | -1.9 |
| B3 | 23000 | 4140 gMFI | 0.8 | 50 | 13.3 | 7.1 |
| B4 | 24700 | 7920 gMFI | -0.7 | 11.3 | 1.5 | 2.9 |
| B5 | 22400 | 7600 gMFI | 4.5 | 82.4 | 43.6 | 4.4 |
| B6 | 22400 | 4660 gMFI | 7.4 | 87.7 |  | -2.1 |
| B7 | 19700 | 9550 gMFI | 3.6 | 29 | 17.9 | 2.7 |
| B8 |  | 1610 gMFI | 11.3 | 370 |  | -2.5 |
